Experimental data: patent publication US20240115701A1

Tests used:
[1] = target: MabSelect Sure Protein A ligand (protein A resin, GE Healthcare); test: batch resin-slurry partitioning on MabSelect Sure protein A resin; Elute: 20 mM NaAcetate, pH 3.5; reference mAb1
[2] = target: MabSelect Sure Protein A ligand (protein A resin, GE Healthcare); test: partitioning on protein A resin under loading conditions; reference mAb3
[3] = target: MabSelect Sure Protein A ligand (protein A resin, GE Healthcare); test: batch resin-slurry partitioning on MabSelect Sure protein A resin; Strip: 100 mM acetic acid
[4] = target: MabSelect Sure Protein A ligand (protein A resin, GE Healthcare); test: batch resin-slurry partitioning on MabSelect Sure protein A resin; Elute: 20 mM NaAcetate, pH 3.5
[5] = target: MabSelect Sure Protein A ligand (protein A resin, GE Healthcare); test: batch resin-slurry partitioning on MabSelect Sure protein A resin; Equil/wash: 10 mM NaPhosphate, pH 6.5
[6] = target: MabSelect Sure Protein A ligand (protein A resin, GE Healthcare); test: batch resin-slurry partitioning on MabSelect Sure protein A resin; Strip: 100 mM acetic acid; reference mAb1
[7] = target: MabSelect Sure Protein A ligand (protein A resin, GE Healthcare); test: batch resin-slurry partitioning on MabSelect Sure protein A resin; Strip: 100 mM acetic acid; reference mAb2
[8] = target: MabSelect Sure Protein A ligand (protein A resin, GE Healthcare); test: batch resin-slurry partitioning on MabSelect Sure protein A resin; Elute: 20 mM NaAcetate, pH 3.5; reference mAb2
[9] = target: MabSelect Sure Protein A ligand (protein A resin, GE Healthcare); test: batch resin-slurry partitioning on MabSelect Sure protein A resin; High salt wash: 10 mM NaPhosphate, pH 6.5, 0.5M NaCl
[10] = target: MabSelect Sure Protein A ligand (protein A resin, GE Healthcare); test: batch resin-slurry partitioning on MabSelect Sure protein A resin; Equil/wash: 10 mM NaPhosphate, pH 6.5; reference mAb1
[11] = target: MabSelect Sure Protein A ligand (protein A resin, GE Healthcare); test: batch resin-slurry partitioning on MabSelect Sure protein A resin; Equil/wash: 10 mM NaPhosphate, pH 6.5; reference mAb2
[12] = target: MabSelect Sure Protein A ligand (protein A resin, GE Healthcare); test: batch resin-slurry partitioning on MabSelect Sure protein A resin; High salt wash: 10 mM NaPhosphate, pH 6.5, 0.5M NaCl; reference mAb1
[13] = target: MabSelect Sure Protein A ligand (protein A resin, GE Healthcare); test: batch resin-slurry partitioning on MabSelect Sure protein A resin; High salt wash: 10 mM NaPhosphate, pH 6.5, 0.5M NaCl; reference mAb2

| log α (log KP PLBL2 - log KP mAb1) [1] | log α (log KP PLBL2 - log KP mAb3) [2] | log KP (partition coefficient, bound/free) [3] | log KP (partition coefficient, bound/free) [4] | log KP (partition coefficient, bound/free) [5] | log α (log KP PLBL2 - log KP mAb1) [6] | log α (log KP PLBL2 - log KP mAb2) [7] | log α (log KP PLBL2 - log KP mAb2) [8] | log KP (partition coefficient, bound/free) [9] | log α (log KP PLBL2 - log KP mAb1) [10] | log α (log KP PLBL2 - log KP mAb2) [11] | log α (log KP PLBL2 - log KP mAb1) [12] | log α (log KP PLBL2 - log KP mAb2) [13] | Substance |
| --- | --- | --- | --- | --- | --- | --- | --- | --- | --- | --- | --- | --- | --- |
| 0 |  |  |  |  |  |  |  |  |  |  |  |  | phospholipase B-like 2 (PLBL2) |
|  | -2 | 0 | 0 | 0 | 0 | 0 | -0.3 | 0 | -2 | -2 | -2 | -2 | phospholipase B-like 2 (PLBL2) (enzyme) |
